Data: patent US20200199244A1 (published 2020)
Changes are numbered by the printed parent chain. Where “and” joins values, the source holds several entries; their conditions need not be identical. Identical values can stand only once. One block for each binder: values may come before it.

Columns and labels:
biotinylated human CD40 = target: T1, biotinylated human CD40 (human, UniProt P25942 21-193, limits assumed, biotinylated (sites not given)); test: SPR, BIAcore 3000, 10 µM dAb alone over biotinylated human CD40
T1 construct: Biotinylated human CD40 (supplied by BMS), about 600 RU immobilised on a streptavidin BIAcore chip; also called hCD40

[1] = target: T2, cynomolgus monkey CD40 on CD20+ B cells in blood (Macaca fascicularis (cynomolgus monkey), UniProt P25942 21-277 (human entry)); test: flow cytometry on whole blood, anti-PEG detection, gate on CD20+ B cells
T2 construct: also called cynoCD40
T2 chain: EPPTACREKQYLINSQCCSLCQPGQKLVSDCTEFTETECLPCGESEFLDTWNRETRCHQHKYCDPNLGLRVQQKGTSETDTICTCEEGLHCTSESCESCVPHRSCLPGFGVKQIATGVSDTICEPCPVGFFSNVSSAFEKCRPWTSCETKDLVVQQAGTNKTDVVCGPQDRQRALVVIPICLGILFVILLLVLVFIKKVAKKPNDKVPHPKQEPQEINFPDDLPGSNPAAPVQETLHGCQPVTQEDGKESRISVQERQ
Description: (§1) 100 μl from each blood sample was aliquoted to 12×75 mm tubes and washed 3 times with FACS buffer (0.5% FBS/PBS/0.1% sodium azide). Tubes were centrifuged for 5 minutes at 1500 rpm, and supernatants were decanted between washes. Following the washes, tubes were placed on ice and incubated with human IgG for 5 minutes to block non-specific binding via Fc receptors.
(§2) Samples were washed once in FACS buffer, then incubated with an APC-labeled CD20 antibody (clone 2H7, BD Biosciences) and PE labeled-anti-mouse IgG (Fcγ1 specific; Calbiochem) for an additional 30 minutes on ice.
(§3) To lyse red blood cells and fix white blood cells following detection antibody incubation, FACS Lysing Solution (BD Biosciences) was added to all tubes, and samples were incubated for 15 minutes at room temperature. Samples were centrifuged and resuspended in FACS Lysing Solution, and analyzed by flow cytometry on a BD FACSCanto™, gating on CD20+ B cells for analysis. For marmoset samples, the CD20 antibody was not cross reactive; therefore analysis was performed on all lymphocytes as identified by forward and side scatter properties (size).

[2] = target: T3, rhesus macaque CD40 on CD20+ B cells in blood (rhesus macaque, UniProt F6SNI1 21-278); test: as above
T3 construct: whole, on cells; also called rhesus CD40
Description: as §1, §2, §3

[3] = target: T4, marmoset CD40 on blood lymphocytes (marmoset, UniProt Q3LRP1 21-274); test: flow cytometry on whole blood, anti-PEG detection, all lymphocytes by scatter
T4 construct: whole, on cells
Description: as §1, §2, §3

[4] = target: T4, marmoset CD40 on blood lymphocytes; test: flow cytometry on whole blood, PE-streptavidin detection, all lymphocytes by scatter
Description: as §1
(§4) For biotin-conjugated dAb detection, PE-labeled streptavidin (Invitrogen) and APC-labeled CD20 antibody (clone 2H7, BD Biosciences) were added to tubes and incubated 30 minutes at room temperature.
as §3

[5] = target: human CD40 on primary human cells (blood CD20+ B cells, tonsillar B cells, monocyte-derived dendritic cells) (human, UniProt P25942 21-277); test: flow cytometry on human whole blood, PE-streptavidin detection, gate on CD20+ B cells
Description: as §1, §4, §3

[6] = target: T2, cynomolgus monkey CD40 on CD20+ B cells …; test: flow cytometry on whole blood, PE-streptavidin detection, gate on CD20+ B cells
Description: as §1, §4, §3

[7] = target: T3, rhesus macaque CD40 on CD20+ B cells in …; test: as above
Description: as §1, §4, §3

[8] = target: T5, human CD40 (W109L) Fc fusion (human, UniProt P25942 21-193); test: SPR, ProteOn XPR36; CD40-Fc captured, dAb analyte
T5 construct: Same construct as wt-hCD40 with W109L; also called hCD40-M2; hCD40 M2 (W109L); not shown: human IgG1 Fc

[9] = target: T6, human CD40 (W109R) Fc fusion (Chimpanzee CD40) (human, UniProt P25942 21-193); test: SPR, ProteOn XPR36; CD40-Fc captured, dAb analyte
T6 construct: Same construct as wt-hCD40 with W109R (the residue of chimpanzee CD40); also called hCD40-M3; hCD40 M3 (W109R); not shown: human IgG1 Fc

[10] = target: T7, wild type cynomolgus monkey CD40 Fc fusion (cynomolgus monkey (Macaca …)); test: SPR, ProteOn XPR36; CD40-Fc captured, dAb analyte
T7 construct: also called wt-cCD40; wt-cyno-CD40; not shown: human IgG1 Fc
T7 chain: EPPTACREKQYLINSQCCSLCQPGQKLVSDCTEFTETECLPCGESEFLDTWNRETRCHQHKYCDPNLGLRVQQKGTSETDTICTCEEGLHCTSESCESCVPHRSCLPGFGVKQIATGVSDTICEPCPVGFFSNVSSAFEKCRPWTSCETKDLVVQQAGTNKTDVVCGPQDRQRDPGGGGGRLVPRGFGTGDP

[11] = target: T8, human CD40 (W109L, L121P) Fc fusion (human, UniProt P25942 21-193); test: SPR, ProteOn XPR36; CD40-Fc captured, dAb analyte
T8 construct: Same construct as wt-hCD40 with W109L and L121P; also called hCD40-M4; hCD40 M4 (W109L, L121P); not shown: human IgG1 Fc

[12] = target: T9, human CD40 (H76R, W109L, L121P) Fc fusion (human); test: SPR, ProteOn XPR36; CD40-Fc captured, dAb analyte
T9 construct: Same construct as wt-hCD40 with H76R, W109L and L121P; also called hCD40-M5; hCD40-M5 (H76R, W109L, L121P); not shown: human IgG1 Fc
T9 chain: T7 chain with S95A, L106S, R142H, Q172L

[13] = target: T10, wild type human CD40 Fc fusion (human, UniProt P25942 21-193); test: SPR, ProteOn XPR36; CD40-Fc captured, dAb analyte; 1:1 fit;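 for Kd: CD40-Fc captured on anti-human IgG(Fc) surface of a GLC chip, buffer pH 7.1, sensorgrams double-referenced against surfaces without CD40-Fc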;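 for koff: CD40-Fc captured on anti-human IgG(Fc) surface of a GLC chip, buffer pH 7.1, sensorgrams double-referenced against surfaces without CD40-Fc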;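 for kon: CD40-Fc captured on anti-human IgG(Fc) surface of a GLC chip, buffer pH 7.1, sensorgrams double-referenced against surfaces without CD40-Fc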
T10 construct: also called wt-hCD40; not shown: human IgG1 Fc

[14] = target: T11, human CD40 (H76R) Fc fusion (human, UniProt P25942 21-193); test: as above
T11 construct: also called hCD40-M1; hCD40 M1 (H76R); not shown: human IgG1 Fc

[15] = target: T10, wild type human CD40 Fc fusion; test: SPR, ProteOn XPR36; CD40-Fc captured, dAb analyte; 1:1 fit; repeat
Description: (§5) Assays were performed on a BioRad ProteOn XPR36 SPR instrument. The SPR surfaces were prepared by immobilizing 8 μg/ml anti-human IgG(Fc) antibody (Biacore/GE Healthcare) in 10 mM sodium acetate pH 4.5 on a BioRad GLC sensor chip using standard ethyl(dimethylaminopropyl) carbodiimide (EDC)/N-hydroxysuccinimide (NHS) chemistry, with ethanolamine blocking. The running buffer for immobilization and kinetic binding analysis was 10 mM sodium phosphate, 130 mM sodium chloride, 0.05% tween 20, pH 7.1. CD40-Fc fusion proteins at concentrations of 20 μg/ml were captured in the vertical orientation on these surfaces via the Fc tail, and reference surfaces lacking CD40-Fc proteins were used for reference subtraction. […] The surfaces were regenerated in both horizontal and vertical orientations with 30 s pulses of 3 M MgCl₂ followed by running buffer at 60 μl/min. Sensogram data was double-referenced and then fitted to a 1:1 Langmuir model using BioRad ProteOn Manager V.2.1.0.38 software, to determine the association rate constant (ka), the dissociation rate constant (kd), and the equilibrium dissociation constant (KD).

[16] = target: T12, wild type human CD40 Fc fusion (human, UniProt P25942 21-193); test: SPR ProteOn XPR36, CD40-Fc captured, dAb analyte
T12 construct: also called wt-hCD40; not shown: human IgG1 Fc

[17] = target: T13, human CD40 (H76R) Fc fusion (human, UniProt P25942 21-193); test: SPR ProteOn XPR36, CD40-Fc captured, dAb analyte
T13 construct: As m1 with H76R; also called hCD40-M1; not shown: human IgG1 Fc

[18] = target: T14, human CD40 (W109L, L121P) Fc fusion (human, UniProt P25942 21-193); test: SPR ProteOn XPR36;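 note: surface plasmon resonance with CD40-Fc fusions captured through their Fc on an anti-human IgG chip, sensorgrams reference-subtracted against surfaces lacking CD40-Fc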
T14 construct: As m1 with W109L and L121P; also called hCD40-M4; not shown: human IgG1 Fc

[19] = target: T15, wild type cynomolgus monkey CD40 Fc fusion (cynomolgus monkey; human); test: SPR ProteOn XPR36;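 note: surface plasmon resonance with CD40-Fc fusions captured through their Fc on an anti-human IgG chip, sensorgrams reference-subtracted against surfaces lacking CD40-Fc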
T15 construct: also called wt-cyno-CD40; wt-cCD40; not shown: human IgG1 Fc
T15 chain: T7 chain

[20] = target: T16, human CD40 (W109R) Fc fusion (Chimpanzee CD40) (human, UniProt P25942 21-193); test: SPR ProteOn XPR36;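 note: surface plasmon resonance with CD40-Fc fusions captured through their Fc on an anti-human IgG chip, sensorgrams reference-subtracted against surfaces lacking CD40-Fc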
T16 construct: As m1 with W109R (residue of chimpanzee CD40); also called hCD40-M3; not shown: human IgG1 Fc

[21] = target: T17, human CD40 (H76R, W109L, L121P) Fc fusion (human); test: SPR ProteOn XPR36;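 note: surface plasmon resonance with CD40-Fc fusions captured through their Fc on an anti-human IgG chip, sensorgrams reference-subtracted against surfaces lacking CD40-Fc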
T17 construct: As m1 with H76R, W109L and L121P; also called hCD40-M5; not shown: human IgG1 Fc
T17 chain: T7 chain with S95A, L106S, R142H, Q172L

[22] = target: T18, human CD40 (W109L) Fc fusion (human, UniProt P25942 21-193); test: SPR ProteOn XPR36
T18 construct: As m1 with W109L; also called hCD40-M2; not shown: human IgG1 Fc

[23] = target: T14, human CD40 (W109L, L121P) Fc fusion; test: SPR ProteOn XPR36, CD40-Fc captured, dAb analyte
Description: as §5

[24] = target: T15, wild type cynomolgus monkey CD40 Fc …; test: SPR ProteOn XPR36, CD40-Fc captured, dAb analyte
Description: as §5

[25] = target: T16, human CD40 (W109R) Fc fusion …; test: SPR ProteOn XPR36, CD40-Fc captured, dAb analyte
Description: as §5

[26] = target: T17, human CD40 (H76R, W109L, L121P) Fc …; test: SPR ProteOn XPR36, CD40-Fc captured, dAb analyte
Description: as §5

[27] = target: T18, human CD40 (W109L) Fc fusion; test: SPR ProteOn XPR36, CD40-Fc captured, dAb analyte
Description: as §5

Single dAb RU (biotinylated human CD40): 165 RU
B1: BMS3h-106 (other)
VH: EVQLLESGGGLVQPGGSLRLSCAASGFTFSTYHMQWVRQAPGKGLEWVSMIDADGLGTYYADSVKGRFTISRDNSKNTLYLQMNSLRAEDTAVYYCAKPGPQFGQFDYWGQGTLVTVSS
notes: Domain antibody (dAb), single human VH domain

binding result [1]: no binding | binding result [2]: no binding | binding result [3]: no binding
B2: BMS3h-56-5C-40L (other)
VH: EVQLLESGGGLVQPGGSLRLSCAASGFTFRDYEMWWVRQAPGKGLERVSAINPQGTRTYYADSVMGRFTISRDNSKNTLYLQMNSLRAEDTAVYYCAKLPFTFDDWGQGTLVTVSS
modifications: PEGylated; attachment residue not stated
notes: PEGylated form of dAb BMS3h-56-5; also called PEGylated anti-human CD40 dAb

binding result [4]: no binding | binding result [5]: binds | binding result [6]: no binding | binding result [7]: no binding
B3: BMS3h38-2-biotin (other)
VH: EVQLLASGGGLVQPGGSLRLSCAASGFTFEEEEMIWVRQAPGKGLEWVSAISGSGGSTYYADSVKGRFTISRDNSKNTLYLQMNSLRAEDTAVYYCGKEPFRYDYWGQGTLVTVSS
modifications: biotin-conjugated; site not stated
notes: Biotin conjugate of dAb BMS3h-38-2; also called biotin-conjugated dAb

Kd [13]: 5.07 nM | koff [13]: 0.000608 s⁻¹ | kon [13]: 120000 M⁻¹ s⁻¹ | Kd [14]: 7.15 nM | koff [14]: 0.001 s⁻¹ | kon [14]: 140000 M⁻¹ s⁻¹ | Kd [15]: 8.04 nM | koff [15]: 0.00114 s⁻¹ | kon [15]: 142000 M⁻¹ s⁻¹
B4: BMS3h-38-2 (other)
VH: B3 VH
notes: Anti-human CD40 domain antibody (dAb), single VH domain
binding result [8]: no binding (tested: dAb tested up to 405 nM) | binding result [9]: no binding (tested: dAb tested up to 405 nM) | binding result [10]: no binding (tested: dAb tested up to 405 nM) | binding result [11]: no binding (tested: dAb tested up to 405 nM) | binding result [12]: no binding (tested: dAb tested up to 405 nM)

binding result [1]: no binding | binding result [2]: no binding | binding result [3]: no binding
B5: BMS3h38-2C-P40Br (other)
VH: B3 VH
modifications: PEGylated; attachment residue not stated
notes: PEGylated form of dAb BMS3h-38-2; also called PEGylated anti-human CD40 dAb

Kd [16]: 5.1 nM and 8 nM | Kd [17]: 7.2 nM | binding result [18]: no binding (tested: 405 nM) | binding result [19]: no binding (tested: 405 nM) | binding result [20]: no binding (tested: 405 nM) | binding result [21]: no binding (tested: 405 nM) | binding result [22]: no binding (tested: 405 nM)
B6: BMS3h-38-2 (other)
VH: B3 VH
notes: domain antibody (dAb), single VH domain

Single dAb RU (biotinylated human CD40): 35 RU
B7: BMS3h-107 (other)
VH: EVQLLESGGGLVQPGGSLRLSCAASGFTFSGYDMQWVRQAPGKGLEWVSTISASGVFTYYADSVKGRFTTSRDNSKNTLYLQMNSLRAEDTAVYYCAKYPNRFALNNFDYWGQGTLVTVSS
notes: as for B1

Single dAb RU (biotinylated human CD40): 85 RU
B8: BMS3h-217 (other)
VL: DIQMTQSPSSLSASVGDRVTITCRASHFIGTLLSWYQQKPGKAPKLLITYGSLLQSGVPSRFSGSGSGTDFTLTISSLQPEDFATYYCGQGVLWPATFGQGTKVEIKR
notes: Domain antibody (dAb), single human V kappa domain

Kd [23]: 0.35 nM | Kd [24]: 0.4 nM | Kd [25]: 0.27 nM | Kd [26]: 0.5 nM | Kd [16]: 0.22 nM and 0.26 nM | Kd [17]: 0.35 nM | Kd [27]: 0.41 nM
B9: BMS3h-217-16 (other)
VL: B8 VL with G41R, A96P
notes: domain antibody (dAb), single VK domain

Kd [23]: 1.6 nM | Kd [24]: 1.9 nM | Kd [25]: 1.2 nM | Kd [26]: 2.2 nM | Kd [16]: 0.78 nM and 1.5 nM | Kd [17]: 1.6 nM | Kd [27]: 2 nM
B10: BMS3h-217-23 (other)
VL: B8 VL with T31S, Q38V, K103T
notes: as for B9

Kd [23]: 0.93 nM | Kd [24]: 0.9 nM | Kd [25]: 0.72 nM | Kd [26]: 1 nM | Kd [16]: 0.47 nM and 0.48 nM | Kd [17]: 0.94 nM | Kd [27]: 0.99 nM
B11: BMS3h-217-5 (other)
VL: B8 VL with S10F, G30A, A96P
notes: as for B9
